This data set is described as follows: soluble on expression in E. coli; label from the status in PepcDB or PDB records.
On to “MALNVAPVRDTKWLTLEVCRQFQRGTCSRSDEECKFAHPPKSCQVENGRVIACFDSLKGRCSRENCKYLHPPTHLKTQLEINGRNNLIQQKTAAAMLAQQMQFMFPGTPLHPVPTFPVGPAIGTNTAISFAPYLAPVTPGVGLVPTEILPTTPVIVPGSPPVTVPGSTATQKLLRTDKLEVCREFQRGNCARGETDCRFAHPADSTMIDTSDNTVTVCMDYIKGRCMREKCKYFHPPAHLQAKIKAAQHQANQAAVAAQAAAAAATVMAFPPGALHPLPKRQALEKSNGTSAVFNPSVLHYQQALTSAQLQQHAAFIPTVPMMHSATSATVSAATTPATSVPFAATATANQIILK”, for which the “soluble on expression in E. coli” value is “soluble”.

As for “MGSSHHHHHHSSGLVPRSGHMEPRGTKRKAEKTEVEKPLNKLPRAVPSLRTQPSLYSGPFPFYRRPSELGCFSLDAQRQYHGDARALRYYSPPPINGPGPDFDLRDGYPDRYQPRDEEVQERLDHLLRWVLEHRNQLEGGPGWLAGATVTWRGHLTKLLTTPYERQEGWQLAASRFQGTLYLSEVETPAARAQRLARPPLLRELMYMGYKFEQYMCADKPGGSPDPSGEVNTNVAYCSVLRSRLGNHPLLFSGEVDCLNPQAPCTQPPSCYVELKTSKEMHSPGQWRSFYRHKLLKWWAQSFLPGVPHVVAGFRNPEGFVCSLKTFPTMEMFENVRNDREGWNPSVCMNFCAAFLSFAQSTVVQDDPRLVHLFSWEPGGPVTVSVHRDAPYAFLPSWYVETMTQDLPPLSKTPSPKD”, the “soluble on expression in E. coli” value is listed as “soluble”. With “MGFAFKRGISTPDLALITRQLATLVQSGMPLEECLRAVAEQSEKPRIRTMLVAVRAKVTEGYTLSDSLGDYPHVFDELFRSMVAAGEKSGHLDSVLERLADYAENRQKMRSKLQQASENLYFQ”, the “soluble on expression in E. coli” value is on record as “soluble”. For “MDCWISTDYQSRTGNMAYPCTNRKTADSYYLNRSYQLDRIAVLLFLRQGTNAAMAGYWSSKILATSESNIYMNIILNMGEYSKSQ”, the “soluble on expression in E. coli” value is “not soluble”. In the case of “MGSDKIHHHHHHMWPDRHAKHLTLGRSRQQMLEFENVSKSFWTGTQRKVILDRVSFRVELGKSMGILAPNGTGKSTLINMMAGLEKPDEGVIRRGCNISFPLGFMGGVVGRLSAMENSRYIARLYGMDPDYIEAYCRWLCGLGEYFDQPLGTYSSGMRARFSFALMLALDFDMYLIDEGMPASTDVEFNKKAGAILEERLRTTTIVIVSHQPATLEQFARQAAVLMDGQLHVFDTLEEAKQLYDYQTQG”, the “soluble on expression in E. coli” value is listed as “not soluble”.

Take “SLRIEHFETISCDAGWRNYYFLKVVTSDGIVGWSEYDESFGPPGLTAVIEQLGARLVGKSVYDHEEAYGRLAASLRPAPYGLSAEAIGAIENALLDAKAKSLGLPVYQLLGGKHRGSIPIYWSHCATWRISHPNLYPPAIVDLDGVKKAGEDARKSGISALKTNLFINENGKPRQWMAGFGSPYAPSLNVDKALLRNLRAHLEALRDGAGPDVDILVDLNFNARTEGYLSLINAIKDFDLFWVELDIYNPDAMAYIRQRSHAPIAACETLFGIRQFLPYFQAQSMDVAIVDAVWNGVWQAMKIASVADAFDVNIAPHNFYSHLSTMMNVHFAAAVPNLRVMEVDVDRLAWDDQLFTRTPEIVNGAIQVPDAPGWGCDPIEEALRAHPPQVRRSHLGL”: the “soluble on expression in E. coli” value was “soluble”. As to “MKDKVYKRPVSILVVIYAQDTKRVLMLQRRDDPDFWQSVTGSVEEGETAPQAAMREVKEEVTIDVVAEQLTLIDCQRTVEFEIFSHLRHRYAPGVTRNTESWFCLALPHERQIVFTEHLAYKWLDAPAAAALTKSWSNRQAIEQFVINAA”, the “soluble on expression in E. coli” value is on record as “soluble”. Consider “MDRVLSRADKERLLELLKLPRQLWGDFGRMQQAYKQQSLLLHPDKGGSHALMQELNSLWGTFKTEVYNLRMNLGGTGFQ”, for which the “soluble on expression in E. coli” value was “soluble”. Regarding “MGSDKIHHHHHHMSVAHENARRIISDILGKQNIERVWFVGCGGSLTGFWPGKYFLDCEASKLAVGYITSNEFVHATPKALGKNSVVILASQQGNTAETVAAARVAREKGAATIGLVYQPDTPLCEYSDYIIEYQWARYPETVDPAQQKAAYSLWLALEILAQTEGYAQYDELVSAFGRFSDVVHGAQRQVQEDAQRFAAEWKDEKVVYMMGSGPSFGAAHQESICILLEMQWINSASIHSGEYFHGPFEITEPGTPFILLQSSGRTRPLDDRAIRFIERYQGKLQLIDADKLGIQDLSTDVGEYFCGLLHNCVLDVYNLALATARNHPLTTRRYMWKVEY”, the “soluble on expression in E. coli” value is listed as “not soluble”. For “MNGKQRMVEQSKQWLSEALIELMKTKDYQDISITEIAQKAELSRKTFYHSFKNKEAVINYLCDQLFDQYFQKLVKQEPQIGEAMLNTTFDIFLNFWWQQRSIIRLLIQQGLFDHMNEIWQKKAVPRYNQFAAPWHVKGTPKQVAYVMAFQLGGFTNILRLWLGQDSPEAPEKIKDLMLLAARQLADSLNPQKN”, the “soluble on expression in E. coli” value is given as “not soluble”. In the case of “MGSDKIHHHHHHMANVTPDLVKALFVGFGKNFKDGLAKAPSQYTEIATVVKSTTASNTYAWLGQMPGLTEWIGDRTLTAIQSHGYSIVNKKWANGVEIQRTDIEDDNVGVYSPLIEELGRAAGEKADELVFGALTAGFKTACYDGQYFFDTDHPVGANVDGTNQKSVSNITDDSTGVTEANAWYLLDCSRSLKPIIYQERKAPTPAQITDANDEKVFMKDVFTYGVDSRSNVGYGFWQMAHAVKGKLTAENLWKAIEAMRAVRGDGDKRLAIRPTHIVVPPSLAQAATKLLERELRAEDGVAVDNEFKRMNLKLIVGDYL”, the “soluble on expression in E. coli” value is recorded as “not soluble”. On to “MGHHHHHHHHHSSGHIDDDDKHMLEASAKATMGQGEQDHFVLKSGHAMPAVGLGTWRAGSDTAHSVRTAITEAGYRHVDTAAEYGVEKEVGKGLKAAMEAGIDRKDLFVTSKIWCTNLAPERVRPALENTLKDLQLDYIDLYHIHWPFRLKDGAHMPPEAGEVLEFDMEGVWKEMENLVKDGLVKDIGVCNYTVTKLNRLLRSAKIPPAVCQMEMHPGWKNDKIFEACKKHGIHITAYSPLGSSEKNLAHDPVVEKVANKLNKTPGQVLIKWALQRGTSVIPKSSKDERIKENIQVFGWEIPEEDFKVLCSIKDEKRVLTGEELFVNKTHGPYRSARDVWDHEN”, for which the “soluble on expression in E. coli” value is recorded as “soluble”. “MVKKMVIAVRKDLDMGKGKIAAQVAHAAVTCAIRSMKINRDVFNEWYDEGQRKIVVKVNDLDEIMEIKRMADSMGIVNEIVQDRGYTQVEPGTITCIGLGPDEEEKLDKITGKYKLL”: the “soluble on expression in E. coli” value is reported as “soluble”. On to “MRSTEVGRVVEDFIVLPPTPKSKWKLSDFELLHKLGGGNYGDVHLASVKDCNFVCALKRLSIKKLADFDIATQLRREIEIAFNTRHKYLLRTYAYFFDETDIYLIMEPCSNGMLYTELNRVKCFAPPTAARYVAQLAEALLYLHQHHILHRDIKPENILLDHNNNIKLADFGWSVHDPDNRRKTSCGTPEYFPPEIVGRQAYDTSADLWCLGIFCYELLVGKTPFVGKDTDQICKNIHSMHFKIPENIPSEAKDLIANLLLRDGSRRLALHRVVNHQFLLKYYYLPNNLQPPTGKRPRLDAEPTAGKEN”, for which the “soluble on expression in E. coli” value was “not soluble”. For “MSLEVGFAPAEFTVTDKDGRKVFLSDYKGKYVLIYHWGLCPGTFWVNPKITDLYQKYHEKGLEVLGFTRDDLLKSLQGSSEEFKKDERVQGLLSHPWTTVYTEDEGNGFIVKDLYFSGVPILMLISPDGITLARGYTKAYEEVKNLLDRNLGNKEGHHHHHH”, the “soluble on expression in E. coli” value is on record as “soluble”. On to “MGSDKIHHHHHHMINIGLTGWGDHYSLYEDLERQTDKLKTYAGHFPVVELDATYYAIQPERNILKWIKETPDTFEFVVKIHQALTLHADYKTFADTRQELFDQFKNMLEPLHTQKKLAMVLVQFPPWFDCNAQNIKYILYVRQQLQAFPMCVEFRHQSWFSDAFKEQTLAFLTEHQIIHAVVDEPQVKDGSVPLVNRITNEIAFVRYHGRNHYGWTKKDMSDQEWRDVRYLYDYNEQELIDLAQKAQILAQKAKKVYVIFNNNSGGHAANNAKTYQRLLNIEYEGLAPQQLKLF”, for which the “soluble on expression in E. coli” value was “not soluble”. In the case of “MEETSMGKLSICRQNVPMKSMPSRLPKIDQAGVARRLEALRDALGLDKGEFAQSFGLDPSSYSKVLQGKKPLKSEYGHAIAEGWGVSMDFIYRGDMSRIDETLRTKVMQNLTAPMR”, the “soluble on expression in E. coli” value is “not soluble”.

In the case of “MGSDKIHHHHHHMDEYNFIVEKLQELGLTKREAEVYLAILMKNGATVKDLLETLDVHQPQLYNIIQSLIRKGFIRASAGRPRVYTANDITALIDVQKMKLDSLKRILQEELGKIRENEGEEPYISYVRSLEGVLASAIETINSAEVEIRAELPYQIYKELSPYFVSALRRGINLYLLVYPTTKSFIELADFKNQIKVKTSELGNFLLIISDLHRAVYSKRRFFTIHKLPISENEVYGYIIHEKDLLLRLLNIHNNLWVKAKEIIGWIPGPEVYPKTFIDFSMALNELEALLRLGYTPIVRVLGRDVKSEYPIEVSGRVRAVNRIGIVSNFILESNEGTFTVGGFDAEIEDIEAQRVIIEKVEREGGKKP”, the “soluble on expression in E. coli” value is given as “not soluble”. As to “MSLSMSLRDQLLKAGLVNEKQAKQATKQKQKQQRLEHKNQVDKDDSQRQAAEQAKAEKLARDQELNRQQQEKAEKKAKAAQIKQLIEGTRLPKLESDDYYNFVDAKKVKRIAVNDLIRDKLSRGSLAIVSYDGRYEIVPRDAAVKIQERDPRRVVLLNVQSQEPDEDDPYKDYVVPDDLMWEGGSHHHHHH”, the “soluble on expression in E. coli” value is “soluble”. In the case of “MELRIGFGFDSHEFVEGKLLILGGVEIEKDYGLKGHSDGDALLHAITDAILGALGERDIGEIFKDTDPRWKNAPSRIFLEKALEVMSEKGFNISNIDCVIVADRPKIAPHKERIKESLSKLLGIPKERISLKGKRREGFCEGNGLVCMCTVLLVKMLEHHHHHH”, the “soluble on expression in E. coli” value was “soluble”. In the case of “METFRTLLAKAALGNGISSTAYDTAWVAKLGQLDDELSDLALNWLCERQLPDGSWGAEFPFCYEDRLLSTLAAMISLTSNKHRRRRAAQVEKGLLALKNLTSGAFEGPQLDIKDATVGFELIAPTLMAEAARLGLAICHEESILGELVGVREQKLRKLGGSKINKHITAAFSVELAGQDGVGMLDVDNLQETNGSVKYSPSASAYFALHVKPGDKRALAYISSIIQAGDGGAPAFYQAEIFEIVWSLWNLSRTDIDLSDPEIVRTYLPYLDHVEQHWVRGRGVGWTGNSTLEDCDTTSVAYDVLSKFGRSPDIGAVLQFEDADWFRTYFHEVGPSISTNVHVLGALKQAGYDKCHPRVRKVLEFIRSSKEPGRFCWRDKWHRSAYYTTAHLICAASNYDDALCSDAIGWILNTQRPDGSWGFFDGQATAEETAYCIQALAHWQRHSGTSLSAQISRAGGWLSQHCEPPYAPLWIAKTLYCSATVVKAAILSALRLVDESNQ” it was “not soluble”; in that of “MAIRVIGTGFGRTGTDSMREALTILGFGPCHHMSEVMGNEDQKRLWRALAKGAAPDWNQLFAGYASCIDWPSAHYWRDLIEFYPKARVILTYRSPESWWASFEKTILAGISQSTDQESLGLALISRQVFDGRPHDRANAIAVYEANVRAVIATVPPSRLLVHNLGDGWKPLCLHLDVPVPDKPYPNRNTTKDFQSALAQN”, “soluble”. “MNNALYNQIRIFQSIAREGNISAAARKLEITPPSVSNALRLLEEHIGHPLFVRTTRRIELTETGQQLLEQTAAAVETLEKSLEIIRDQNQEPSGAVRITLSRFAYLLILKPAMAAFCQQYPGIQLEISVYDGTVNIIEERFDLGIRFGDILEGGVVARPLMKPFREGLYASSAYLAEYGVPAMPADLHHHRLIGYRFITNNRILPLILNDHGEQLTVEMPGQLISNDIDVMADGIRHGLGIGRLFEPILQLQPDREQFIPVMEDYWKTYPPVYLYYPKNAGRTKRVKALIDFLIMYAADDAEKIGSSR”: the “soluble on expression in E. coli” value is reported as “not soluble”.
